In the supplement of paper PMC11865577:

Each sequence was assayed on TO-3-N3 (biotin conjugate) (assay: pull-down binding Z-score (relative to library population); higher = stronger binding). Conditions: RNA library: Library-2.
Outline: (§1)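 Binding is given as a Z-score against the library mean and standard deviation, calculated after removing the beads-only signal and averaging barcoded replicate probes without their highest and lowest values. Cy5- or Cy3-end-labelled RNA library (1 μg) was heat-folded in phosphate/NaCl/KCl buffer and incubated 60 min at 25 °C with streptavidin beads bearing 100 pmol of biotin-conjugated small molecule. After three washes, RNA eluted in hot SDS was hybridised to a DNA barcode microarray for 20 h at 55.5 °C.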

Sequence	pull-down binding Z-score
AAGACACUAUCUGACAACAACAGGGCUCUU [hsa-mir-550b-2]	0.681
AAGACACUAUCUUACAACAACAGGGCUCUU [hsa-mir-550b-1]	1.17
AAGAGGAGGUGGUUGUUUUCCUCCUCUU [hsa-mir-627]	0.432
AAGAGGUAAGAAGAAGUGAAGCCCUCUU [hsa-mir-4778]	-0.393
AAGCAGGGUCGGGCCUGGUU [hsa-mir-7641-2]	0.415
AAGCAGGGUUGGGCCUGGUU [hsa-mir-7641-1]	-0.192
AAGCCCUACGAGAAACUGGGGUUUCUGGA [hsa-mir-765]	0.529
AAGCUCUUGCAGUAGGUUU [hsa-mir-1206]	-0.604
AAGCUGACAGACAGCUG [hsa-mir-5691]	-0.057
AAGCUGUGUGUGUCCAGC [hsa-mir-4732]	0.132
AAGGCCAGGACCCGCUGACCCAU [hsa-mir-6872]	0.148
AAGGCCCUUGGGCACCCCAGGCCUU [hsa-mir-5700]	0.259
AAGGCGGGUGGUGCUCAGAUCGCCU [hsa-mir-326]	-0.0387
AAGGGUGUAUGAGAGAUCAACCCUU [hsa-mir-5697]	0.544
AAGGUGGAGUUCUGGGUGCUGUUUUCCCACUCU [hsa-mir-378i]	0.0547
AAGUAAUUGUUUCUAAUGUACU [hsa-mir-412]	-0.549
AAGUAGUUGGCGUCUUCAGAGACACUU [hsa-mir-643]	0.57
AAGUCCGGCUCCAGAACCUGGACACCGCUCAG [hsa-mir-4638]	0.52
AAGUCGAUUUCCAAAAGUGACUU [hsa-mir-3124]	-0.856
AAGUGCCGUCCUCAUGAGCCCCU [hsa-mir-6769b]	0.296
AAGUGGAGCAGGAAUGCGCUUUUCUCCACUG [hsa-mir-5187]	0.299
AAGUUCCCUCUGGCUGGAAC [hsa-mir-1249]	0.574
AAUAAAGUAUGUCCACAGCUGAAAGGACAUACUUUAUU [hsa-mir-4464]	-0.7
AAUCCCAGCACUUUGGGAG [hsa-mir-3929]	0.0452
AAUCCCUCUCUUUCUAGUUCUUCCUAGAGUGAGGAAAA [hsa-mir-320b-1]	-0.294
AAUGACUCAUAGUCAA [hsa-mir-4475]	0.512
AAUGCAGUCUGCACCCUGCUGCAUU [hsa-mir-6504]	0.237
AAUGCAUAGAAAGCAUU [hsa-mir-4272]	-0.177

Sequence	pull-down binding Z-score
AAUGCUGUGUUUCUGUAUGGUAUU [hsa-mir-92a-1]	0.212
AAUGUCAGGGCCACCCCUGACCUU [hsa-mir-6837]	-0.431
AAUUGGCUUUUACAAAAGACCAACU [hsa-mir-4798]	0.117
AAUUUUCUCUUGUCUAAAAGAAAAGAACG [hsa-mir-521-2]	-0.905
AAUUUUGAUGAGUAUCAUAGGAGAAAAAUU [hsa-mir-363]	-0.302
AAUUUUUUUUUAAUUUAAAAAAUU [hsa-mir-3938]	-0.808
ACAAUAUGCUAUUAUAAUCGUAUGGCAUUGU [hsa-mir-2355]	-0.919
ACAAUUAUGAAAGAAAAGAAAUUGU [hsa-mir-3611]	-0.386
ACACACACCAGACUAUGGAAGCCAGUGU [hsa-mir-147a]	-0.455
ACACCUGUAAAGAAUUGGUCAGCCUGGGGACUGGUGAUCUCUGCAGCUGU [hsa-mir-4265]	1.15
ACACUGCGCUGCCCCAGACCCACUGU [hsa-mir-210]	0.364
ACACUGGGCUGCCCCCACUGCCCAGUGC [hsa-mir-4277]	0.676
ACACUUCCUAUAUGUAUCCACAUAUAUAUAGU [hsa-mir-568]	-0.562
ACAGAGUGAGAUGGUCUUGUUUUGU [hsa-mir-5684]	-0.542
ACAGCAGUCUUACUGAAGGUUUCCUGGAAACCACGCACAUGCUGU [hsa-mir-744]	-0.304
ACAGCCAGUGCUCUCGUCUCCCCUCUGGCUGC [hsa-mir-192]	0.839
ACAGCGCCACGGAAGAGGACGCA [hsa-mir-941-4_941-5_941-2_941-3_941-1]	0.0968
ACAGGUAGUGGCCACAGUGAGAAAGCUGGCCUGUCCUUCUGC [hsa-mir-4314]	-0.00864
ACAGUGGACUUGGUGACGCUGU [hsa-mir-675]	-0.46
ACAGUGGCCACAUCUCCAC [hsa-mir-1184-3_1184-2_1184-1]	1.11
ACAGUUUGAGGGUCUAUGAUACCACCCGGUACAGGAGAUAACUGU [hsa-let-7g]	-0.508
ACAUGAAAAUAAAAUGUAAAUUAUUUUAUUUCUAUCA [hsa-mir-3671]	0.665
ACAUGCAGUAUUUGG [hsa-mir-1302-8]	-0.326
ACAUUUGCAACCUGUGAAGAUGCAAAACUUUAAGUGU [hsa-mir-2053]	-0.699
ACCAAAAAUGAUAUGGGU [hsa-mir-7977]	-0.344
ACCAAAACACUCAUCGCGG [hsa-mir-1260a]	-0.138
ACCACCCAGGCCUUAUGGCUUCAUA [hsa-mir-7974]	-0.102

The sequences below were run on TO-N3 (biotin conjugate) in the same assay as above. Conditions: RNA library: Library-2.
Outline: as §1

Sequence	pull-down binding Z-score
AAAUAAAAGAUGGAGUCGUUUGACGUCUUUUAACACCCUUU [hsa-mir-8055]	-0.706
AAAUAAGAGGCUAGGAUUGCCUCUUAUUU [hsa-mir-3201]	-1.18
AAAUAAGCUCCAUAUCAAUGAGAAUUUCAAUGGGAUUAUGUG [hsa-mir-4791]	-0.415
AAAUAGUUUCUAUCAAAAUAGUUU [hsa-mir-3668]	-0.931
AAAUCCCGUUAAUAAGUAAGAGGAUUU [hsa-mir-2113]	0.817
AAAUCCGUGUUUGGACGCUUCUGGUA [hsa-mir-3936]	0.923
AAAUGAGAGUUAGCCAGGAGCUUUGCAUACUCA [hsa-mir-6801]	-0.00733
AAAUUGCAGACACUAGGACCAUGUCUUGGUUUUUGCAAUAAUG [hsa-mir-1248]	-0.189
AACAACAGCAUCAGAAGCAACAUCAGCUUUAGUU [hsa-mir-569]	0.9
AACACCCAUCCCAGGAUUGCUGAUGGGUGUU [hsa-mir-5705]	-0.668
AACAGCAGGAUUGGCUGUAGCUGUU [hsa-mir-2117]	0.185
AACAGCUUUGCGAAGUGUUGUU [hsa-mir-4425]	-0.113
AACAGGACCUGUGCUCACUGGGGCCUGCA [hsa-mir-6797]	1.02
AACAUACAUUUGUCUUGGUGUGUU [hsa-mir-4684]	-1.44
AACGUUAUGUGUGGUCUUUAACCUGUU [hsa-mir-6755]	-0.139
AACUCCUGCGAGUCCCUGGAGUU [hsa-mir-1258]	-0.0874
AACUCUGUUGAAUAUAAAUUGGAAUU [hsa-mir-367]	-0.572
AACUGUGCGGCCGGCCACACCGUCACACCGGGU [hsa-mir-8083]	1.44

Sequence	pull-down binding Z-score
AAGACACUAUCUGACAACAACAGGGCUCUU [hsa-mir-550b-2]	0.93
AAGACACUAUCUUACAACAACAGGGCUCUU [hsa-mir-550b-1]	1.01
AAGAGGAGGUGGUUGUUUUCCUCCUCUU [hsa-mir-627]	0.944
AAGAGGUAAGAAGAAGUGAAGCCCUCUU [hsa-mir-4778]	-0.292
AAGCAGGGUCGGGCCUGGUU [hsa-mir-7641-2]	0.442
AAGCAGGGUUGGGCCUGGUU [hsa-mir-7641-1]	-0.00685
AAGCCCUACGAGAAACUGGGGUUUCUGGA [hsa-mir-765]	0.686
AAGCUCUUGCAGUAGGUUU [hsa-mir-1206]	-0.46
AAGCUGACAGACAGCUG [hsa-mir-5691]	0.144
AAGCUGUGUGUGUCCAGC [hsa-mir-4732]	0.33
AAGGCCAGGACCCGCUGACCCAU [hsa-mir-6872]	0.411
AAGGCCCUUGGGCACCCCAGGCCUU [hsa-mir-5700]	0.181
AAGGCGGGUGGUGCUCAGAUCGCCU [hsa-mir-326]	0.274
AAGGGUGUAUGAGAGAUCAACCCUU [hsa-mir-5697]	1.07
AAGGUGGAGUUCUGGGUGCUGUUUUCCCACUCU [hsa-mir-378i]	0.173
AAGUAAUUGUUUCUAAUGUACU [hsa-mir-412]	0.00941
AAGUAGUUGGCGUCUUCAGAGACACUU [hsa-mir-643]	0.531
AAGUCCGGCUCCAGAACCUGGACACCGCUCAG [hsa-mir-4638]	0.898
